From patent US20230365671A1 (ONCOONE RESEARCH AND DEVELOPMENT, published 2023)
Numbering of substitutions follows the chain as printed. Names may count otherwise. Values belong to the binder of their own block, whether it stands above or below them.

What was measured:
[1] = target: T1, Human oxMIF (human recombinant MIF treated with 0.2% Proclin300, oxMIF surrogate) (human, UniProt P14174 2-115, treated with 0.2% Proclin300 (active component 5-chloro-2-methyl-4-isothiazolin-3-one) for 3 h to transform MIF into an oxMIF surrogate); experiment: SPR (Biacore 3000), antibody amine-coupled to CM5 chip, Proclin300-treated MIF 50-150 nM as analyte, 1:1 Langmuir with mass transfer; mean of flow cells 2-4, SD +/-0.38 nM
T1 construct: SPR analyte; also called Proclin300 treated MIF; soluble human oxMIF
Procedure: (§1) FC1 was used as reference cell and was only reacted with buffers. Mouse or human recombinant MIF were diluted in HBS-EP buffer (GE Healthcare) to concentrations of 50, 75, 100, or 150 nM in the presence of 0.2% Proclin300 (active component 5-chloro-2-methyl-4-isothiazolin-3-one; Sigma) to transform MIF into an oxMIF surrogate (Thiele M et al., 2015) for 3 h at room temperature. Proclin300 treated MIF was applied to immobilized anti-oxMIF antibodies at a flow rate of 30 μl/min for 3 min using a Biacore™ 3000 Instrument (GE Healthcare). Dissociation time was 300 seconds, and the chip was regenerated using 10 mM HCl for 3 minutes. The kinetics of the concentration series were analyzed by local simultaneous association/dissociation fitting of each binding curve after subtraction of background from the reference cell (FC1) using the iterative Langmuir 1:1 interaction model with mass transfer compensation provided by the BiaEvaluation 4.1 software (GE Healthcare). Data are represented as mean+/−SD (standard deviation) of the calculated KD values of Flow Cells 2-4.

[2] = target: T2, oxMIF: recombinant human MIF immobilized into ELISA plates (transforming MIF to oxMIF) (human, UniProt P14174 2-115); experiment: ELISA, antibody titrated on plate-immobilized recombinant human MIF (oxMIF), protein L-HRP; EC50 of 4-parameter fit given as KD, mean of two experiments
T2 construct: Same polypeptide as redMIF; differs in conformation (oxMIF isoform); also called immobilized MIF; immobilized oxMIF
Procedure: (§2) Recombinant human MIF diluted in PBS at 1 μg/ml was immobilized into ELISA plates overnight at 4° C. (transforming MIF to oxMIF according to Thiele et al., 2015). After blocking, serial dilutions of anti-oxMIF antibodies were added to the plates. Finally, bound antibodies were detected using a protein L-HRP conjugate and tetramethylbenzidine (TMB) as substrate. The chromogenic reaction was stopped with 3M H₂SO₄ and OD was measured at 450 nm.

[3] = target: T2, oxMIF: recombinant human MIF …; experiment: ELISA, antibody titrated on plate-immobilized recombinant human MIF (oxMIF), goat anti-human IgG(Fc)-HRP; EC50 of 4-parameter fit given as KD, two experiments
Procedure: as §2, with “with Goat anti-human IgG(Fc)-HRP” for “using a protein L-HRP”

[4] = target: T2, oxMIF: recombinant human MIF …; experiment: ELISA on plate-immobilized recombinant human MIF (oxMIF)
Procedure: as §2

[5] = target: T1, Human oxMIF (human recombinant MIF …); experiment: SPR (Biacore 3000), antibody amine-coupled to CM5 chip, Proclin300-treated MIF 50-150 nM as analyte, 1:1 Langmuir with mass transfer; mean of flow cells 2-4, SD +/-2.30 nM
Procedure: as §1

[6] = target: T1, Human oxMIF (human recombinant MIF …); experiment: SPR (Biacore 3000), antibody amine-coupled to CM5 chip, Proclin300-treated MIF 50-150 nM as analyte, 1:1 Langmuir with mass transfer; mean of flow cells 2-4, SD +/-0.83 nM
Procedure: as §1

T2 sequence (P14174 2-115 limits assumed): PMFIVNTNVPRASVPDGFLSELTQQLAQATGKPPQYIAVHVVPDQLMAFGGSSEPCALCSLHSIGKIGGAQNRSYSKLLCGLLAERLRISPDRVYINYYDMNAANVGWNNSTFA
T1 sequence (P14174 2-115 limits assumed): as above

B1: anti-oxMIF antibody C0008 (control antibody) (antibody, human IgG1, kappa, V domains shown)
VH: EVQLLESGGGLVQPGGSLRLSCAASGFTFSIYSMNWVRQAPGKGLEWVSSIGSSGGTTYYADSVKGRFTISRDNSKNTLYLQMNSLRAEDTAVYYCAGSQWLYGMDVWGQGTTVTVSS
VL: DIQMTQSPSSLSASVGDRVTITCRSSQRIMTYLNWYQQKPGKAPKLLIFVASHSQSGVPSRFRGSGSETDFTLTISGLQPEDSATYYCQQSFWTPLTFGGGTKVEIKR
notes: Human IgG with wt Fc
Kd [1]: 3.49 nM
Kd [2]: 0.7 nM
Kd [3]: 0.2 nM

B3: anti-oxMIF antibody C0073 (antibody, human IgG1, kappa)
heavy: not shown
light: DIQMTQSPSSLSASVGDRVTITCRSSQRIMTYLNWYQQKPGKAPKLLIYVGSHSQSGVPSRFRGSGSETDFTLTISGLQPEDSATYYCQQSFFTPLTFGGGTKVEIKRTVAAPSVFIFPPSDEQLKSGTASVVCLLNNFYPREAKVQWKVDNALQSGNSQESVTEQDSKDSTYSLSSTLTLSKADYEKHKVYACEVTHQGLSSPVTKSFNRGEC
Kd [2]: 1 nM

B4: anti-oxMIF antibody C0076 (antibody, human IgG1, kappa, V domains shown)
VH: B1 VH with L5Q
VL: B1 VL with F49Y, A51G
Kd [2]: 1.1 nM

B8: anti-oxMIF antibody C0077 (antibody, human IgG1, kappa, V domains shown)
VH: B1 VH with L5Q
VL: B1 VL with Y36F, F49Y, A51G
notes: Differs from C0076 only by Y36F in VL
fold reduction in affinity compared to C0076 [4]: 5 fold
Kd [2]: 5.2 nM

B9: anti-oxMIF antibody C0078 (antibody, human IgG1, kappa)
heavy: not shown
light: B3 light
Kd [2]: 1.6 nM

B12: anti-oxMIF antibody C0108 (antibody, human IgG1, kappa)
heavy: EVQLQESGGGLVQPGGSLRLSCAASGFTFSIYSMNWVRQAPGKGLEWVSSIGSSGGTTYYADSVKGRFTISRDNSKNTLYLQMNSLRAEDTAVYYCAGSQYLYGMDVWGQGTTVTVSSASTKGPSVFPLAPSSKSTSGGTAALGCLVKDYFPEPVTVSWNSGALTSGVHTFPAVLQSSGLYSLSSVVTVPSSSLGTQTYICNVNHKPSNTKVDKKVEPKSCDKTHTCPPCPAPELLGGPDVFLFPPKPKDTLMISRTPEVTCVVVDVSHEDPEVQFNWYVDGVEVHNAKTKPREEQFNSTFRVVSVLTVVHQDWLNGKEYKCKVSNKALPAPEEKTISKTKGQPREPQVYTLPPSREEMTKNQVSLTCLVKGFYPSDIAVEWESNGQPENNYKTTPPMLDSDGSFFLYSKLTVDKSRWQQGNVFSCSVMHEALHNHYTQKSLSLSPG
light: B3 light
notes: ADCC/ADCP enhancing mutations in the Fc portion
Kd [5]: 6.06 nM
Kd [3]: 0.3 nM

Further lines, results first:

Kd [2]: 0.4 nM
B2: anti-oxMIF antibody C0099 (antibody, human IgG1, kappa)
heavy: B12 heavy with Q5L, Y101W
light: B3 light
notes: Fc mutated to increase effector functions

Kd [2]: 0.8 nM
B5: anti-oxMIF antibody C0097 (antibody, human IgG1, kappa)
heavy: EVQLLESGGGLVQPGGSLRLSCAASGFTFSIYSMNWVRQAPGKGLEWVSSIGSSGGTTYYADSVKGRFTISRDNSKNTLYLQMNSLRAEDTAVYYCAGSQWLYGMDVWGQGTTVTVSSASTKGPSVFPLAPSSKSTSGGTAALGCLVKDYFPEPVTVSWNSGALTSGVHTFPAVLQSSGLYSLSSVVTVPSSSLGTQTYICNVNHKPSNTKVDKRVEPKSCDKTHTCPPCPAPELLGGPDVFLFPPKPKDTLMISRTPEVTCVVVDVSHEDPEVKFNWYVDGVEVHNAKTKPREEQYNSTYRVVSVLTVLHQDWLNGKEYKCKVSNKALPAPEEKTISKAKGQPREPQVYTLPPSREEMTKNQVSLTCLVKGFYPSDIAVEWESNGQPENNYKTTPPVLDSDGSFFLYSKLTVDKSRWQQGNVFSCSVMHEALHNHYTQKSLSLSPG
light: B3 light
notes: as for B2

Kd [2]: 0.7 nM
B6: anti-oxMIF antibody C0098 (antibody, human IgG1, kappa)
heavy: EVQLLESGGGLVQPGGSLRLSCAASGFTFSIYSMNWVRQAPGKGLEWVSSIGSSGGTTYYADSVKGRFTISRDNSKNTLYLQMNSLRAEDTAVYYCAGSQWLYGMDVWGQGTTVTVSSASTKGPSVFPLAPSSKSTSGGTAALGCLVKDYFPEPVTVSWNSGALTSGVHTFPAVLQSSGLYSLSSVVTVPSSSLGTQTYICNVNHKPSNTKVDKRVEPKSCDKTHTCPPCPAPELLGGPDVFLFPPKPKDTLMISRTPEVTCVVVDVSFEDPEVKFNWYVDGVEVHNAKTKPREEQYNSTYRVVSVLTVLHQDWLNGKEYKCKVTNKALPAPEEKTISKAKGQPREPQVYTLPPSREEMTKNQVSLTCLVKGFYPSDIAVEWESNGQPENNYKTTPPVLDSDGSFFLYSKLTVDKSRWQQGNVFSCSVMHEALHNHYTQKSLSLSPG
light: B3 light
notes: as for B2

Kd [2]: 0.5 nM
B7: anti-oxMIF antibody C0090 (antibody, human IgG1, kappa)
heavy: not shown
light: B3 light with M30L, P80S

Kd [2]: 0.5 nM
B10: anti-oxMIF antibody C0100 (antibody, human IgG1, kappa)
heavy: EVQLLESGGGLVQPGGSLRLSCAASGFTFSIYSMNWVRQAPGKGLEWVSSIGSSGGTTYYADSVKGRFTISRDNSKNTLYLQMNSLRAEDTAVYYCAGSQWLYGMDVWGQGTTVTVSSASTKGPSVFPLAPSSKSTSGGTAALGCLVKDYFPEPVTVSWNSGALTSGVHTFPAVLQSSGLYSLSSVVTVPSSSLGTQTYICNVNHKPSNTKVDKRVEPKSCDKTHTCPPCPAPELVGGPSVFLLPPKPKDTLMISRTPEVTCVVVDVSHEDPEVKFNWYVDGVEVHNAKTKPPEEQYNSTLRVVSVLTVLHQDWLNGKEYKCKVSNKALPAPIEKTISKAKGQPREPQVYTLPPSRDELTKNQVSLTCLVKGFYPSDIAVEWESNGQPENNYKTTPLVLDSDGSFFLYSKLTVDKSRWQQGNVFSCSVMHEALHNHYTQKSLSLSPG
light: B3 light
notes: as for B2

Kd [2]: 0.5 nM
B11: anti-oxMIF antibody C0083 (antibody, human IgG1, kappa)
heavy: not shown
light: B3 light

Kd [3]: 0.3 nM
Kd [6]: 3.69 nM
B13: anti-oxMIF antibody C0109 (antibody, human IgG1, kappa)
heavy: B12 heavy
light: B3 light with M30L, P80S
notes: as for B12
